“And” between values parts separate entries of the source, which are not always exact repeats. Equal entries are not always repeated.

One may read the Kd as the concentration at which binding is half-saturated.

This experiment concerns the target poliovirus 3AsolBC protein (poliovirus). In words: SEC.

For the substance “poliovirus 3AsolBC protein (natural protein)”, the Kd was in the range of 20 to 60 µM; the percent of the total absorbance in the leading-edge (dimer) peak is 10% and 30%.
